The record followed here is patent US20040171074A1, “Structures of substrate binding pockets of SCF complexes” (MOUNT SINAI HOSPITAL, priority 2002, published 2004).

The subject of one assay is cdc4Δ strain. Put plainly: plasmid shuffle assay: complementation of a cdc4Δ strain by CDC4 alleles. The format is cell-based, yeast. The note with it: viability of cdc4Δ strain on 5-FOA, 2 days at 30° C. The method in brief:
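Mutant CDC4 alleles on TRP1 CEN plasmids were shuffled into cdc4Δ strain MT 1259 carrying wild-type CDC4 on a URA3 plasmid, with growth on 5-FOA for 2 days at 30° C. Survivors were transformed with GAL1-SIC1 or phosphosite mutants and plated on glucose or galactose, 2 days at 30° C.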

A further assay relates to phospho-Sic1. Put plainly: P-Sic1 pull down: in vitro capture of phospho-Sic1 on immobilized wild type or mutant Cdc4-GST-Skp1, anti-Sic1 immunoblot. The format is binding, yeast. The note with it: Sic1 phosphorylated with Cln2-Cdc28, captured onto GST-Skp1/Cdc4 resin, anti-Sic1 detection. The gist of the method: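 Bacterial His6-Sic1 phosphorylated by Cln2-Cdc28 from Sf9 cells; 0.5 μg phospho-Sic1 incubated with 1 μg immobilized wild-type or mutant Cdc4(263-744)-GST-Skp1 at 4° C for 1 h, washed four times. Bound Sic1 detected by anti-Sic1 immunoblot after SDS-PAGE.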

A further assay addresses T1, Skp1 (Saccharomyces cerevisiae, UniProt P52286).
T1 construct: GST (N); made in house; host or cells: bacteria
In words: Skp1 binding in vitro (pull down). Further details: species or system yeast. From the text:
In order to probe the functional importance of amino acid residues on the highly conserved peptide binding surface, a panel of Cdc4 mutants (both single and double mutant) were generated and tested each for its ability to bind phospho Sic1 and Skp1 in vitro using a pull down assay and for its ability to substitute for wt-cdc4 in vivo using a cell viability assay. Of 12 single site mutants tested, only Arg 467. Arg485Ala Arg534Ala, and Trp 426 abolished both cell viability in vivo and phosphoSic1 binding in vitro. Together, these residues compose most of the interaction surface with the pThr, Pro CPD core. […] Presumably in the context of the full SCF complex in vivo this mutant is sufficiently well behaved to bind phospho Sic1.

Assay [1] deals with cdc4Δ strain overexpressing SIC1. In words: sensitivity to SIC1 dosage: GAL1-SIC1 overexpression in strains bearing CDC4 alleles. The settings on record: galactose, 2 days at 30° C. The format is cell-based, yeast. The gist of the method:
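SIC1 dosage sensitivity: cdc4Δ strains carrying CDC4 mutant alleles (after plasmid shuffle) transformed with GAL1-SIC1 or GAL1-SIC1^T33V (also T45A), plated on glucose versus galactose medium for 2 days at 30 °C. Growth on galactose scored as tolerance of SIC1 overexpression.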

The next assay concerns phospho-Sic1 isoforms. Put plainly: IEF-2D gel analysis of Sic1 phospho-isoforms captured by wild type or mutant Cdc4-GST-Skp1. The format is binding, yeast. The settings on record: pool of Sic1 phosphorylated on 1 to 9 sites. The method, then:
Bacterially expressed His6-Sic1 was phosphorylated with Cln2-Cdc28 kinase purified from baculovirus infected Sf9 cells as described before (Nature paper). 1 ug of WT or mutant Cdc4-GST-Skp1, immoblized on GSH-Sepharose resin, was incubated with 0.5 ug phospho-Sic1 at 4 C for 1 h and washed 4 times. Captured complexes were resolved on SDS-PAGE and Sic1 visualized by anti-Sic1 Western blotting and ECL. For IEF-2D analysis, several Sic1 phosphorylation reactions were carried out for different time periods to obtain a spectrum of Sic1 that were phosphorylated at different numbers of its nine CDK sites. This pool of phospho-Sic1 (2.5 ug) was incubated with 5 μg of WT or mutant Cdc4-GST-Skp1 as described above. Different phosphorylation states of Sic1 were separated by denaturing isoelectric focusing (IEF)-2D gel electrophoresis and visualized by anti-Sic1 Western blotting and ECL. IEF was performed using pH 3-10NL Immobiline gel strips and IPGphore IEF system (Amersham pharmacia).
Cdc4 functional assays. CDC4 mutant alleles were assessed for complementation of a cdc4A strain in a plasmid shuffle assay (Nash et al., 2001). Sensitivity to SIC1 dosage was determined by transformation with pMT837 (GAL1-SIC1) or pMT767 (GAL1-SIC1^T33V) and plating on glucose medium or galactose medium. […]

“Also recorded” adds a separate entry of the source.

T1 sequence (P52286 2-194 limits assumed): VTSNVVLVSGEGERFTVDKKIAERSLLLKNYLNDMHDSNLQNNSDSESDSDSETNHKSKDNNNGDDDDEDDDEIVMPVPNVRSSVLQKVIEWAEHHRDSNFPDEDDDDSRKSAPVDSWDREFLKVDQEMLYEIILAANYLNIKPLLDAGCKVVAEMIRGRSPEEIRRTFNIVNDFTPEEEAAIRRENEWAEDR

B1: R534A: mutant cdc4 polypeptide (protein)
chain: MGSFPLAEFPLRDIPVPYSYRVSGGIASSGSVTALVTAAGTHRNSSTAKTVETEDGEEDIDEYQRKRAAGSGESTPERSDFKRVKHDNHKTLHPVNLQNTGAASVDNDGLHNLTDISNDAEKLLMSVDDGSAAPSTLSVNMGVASHNVAAPTTVNAATITGSDVSNNVNSATINNPMEEGALPLSPTASSPGTTTPLAKTTKTINNNNNIADLIESKDSIISPEYLSDEIFSAINNNLPHAYFKNLLFRLVANMDRSELSDLGTLIKDNLKRDLITSLPFEISLKIFNYLQFEDIINSLGVSQNWNKIIRKSTSLWKKLLISENFVSPKGFNSLNLKLSQKYPKLSQQDRLRLSFLENIFILKNWYNPKFVPQRTTLRGHMTSVITCLQFEDNYVITGADDKMIRVYDSINKKFLLQLSGHDGGVWALKYAHGGILVSGSTDRTVRVWDIKKGCCTHVFKGHNSTVRCLDIVEYKNIKYIVTGSRDNTLHVWKLPKESSVPDHGEEHDYPLVFHTPEENPYFVGVLRGHMASVATVSGHGNIVVSGSYDNTLIVWDVAQMKCLYILSGHTDRIYSTIYDHERKRCISASMDTTIRIWDLENIWNNGECSYATNSASPCAKILGAMYTLQGHTALVGLLRLSDKFLVSAAADGSIRGWDANDYSRKFSYHHTNLSAITTFYVSDNILVSGSENQFNIYNLRSGKLVHANILKDADQIWSVNFKGKTLVAAVEKDGQSFLEILDFSKASKINYVSNPVNSSSSSLESISTSLGLTRTTIIP
As for B1, the shuffle result in the assay with cdc4Δ strain is “dead”; in the assay on cdc4Δ strain (listed as Arg534Ala), “abolished; also recorded: unable”. For the same molecule, the P-Sic1 pull down result is “no bind” with phospho-Sic1 and “abolished; also recorded: unable to bind” with phospho-Sic1 (listed as Arg534Ala). Moreover, the Skp1 binding result in the assay with Skp1 was “fully competent”.

B2: W717N/V384N: double mutant cdc4 polypeptide compromised for selection at P−1 (protein)
chain: MGSFPLAEFPLRDIPVPYSYRVSGGIASSGSVTALVTAAGTHRNSSTAKTVETEDGEEDIDEYQRKRAAGSGESTPERSDFKRVKHDNHKTLHPVNLQNTGAASVDNDGLHNLTDISNDAEKLLMSVDDGSAAPSTLSVNMGVASHNVAAPTTVNAATITGSDVSNNVNSATINNPMEEGALPLSPTASSPGTTTPLAKTTKTINNNNNIADLIESKDSIISPEYLSDEIFSAINNNLPHAYFKNLLFRLVANMDRSELSDLGTLIKDNLKRDLITSLPFEISLKIFNYLQFEDIINSLGVSQNWNKIIRKSTSLWKKLLISENFVSPKGFNSLNLKLSQKYPKLSQQDRLRLSFLENIFILKNWYNPKFVPQRTTLRGHMTSNITCLQFEDNYVITGADDKMIRVYDSINKKFLLQLSGHDGGVWALKYAHGGILVSGSTDRTVRVWDIKKGCCTHVFKGHNSTVRCLDIVEYKNIKYIVTGSRDNTLHVWKLPKESSVPDHGEEHDYPLVFHTPEENPYFVGVLRGHMASVRTVSGHGNIVVSGSYDNTLIVWDVAQMKCLYILSGHTDRIYSTIYDHERKRCISASMDTTIRIWDLENIWNNGECSYATNSASPCAKILGAMYTLQGHTALVGLLRLSDKFLVSAAADGSIRGWDANDYSRKFSYHHTNLSAITTFYVSDNILVSGSENQFNIYNLRSGKLVHANILKDADQINSVNFKGKTLVAAVEKDGQSFLEILDFSKASKINYVSNPVNSSSSSLESISTSLGLTRTTIIP
In the case of B2, the shuffle result is “alive” in the assay on cdc4Δ strain and “viable” with cdc4Δ strain (listed as V384N/W717N). Also, the “gal Sic1T33V” value in assay [1] (GAL1-SIC1 T33V (partially stabilized Sic1)) is listed as “dead”. Moreover, the “gal Sic1T45A” value in assay [1] (GAL1-SIC1 T45A) is given as “dead”. Also, the “gal Sic1 wt” value in assay [1] (GAL1-SIC1 wild type) is recorded as “alive”. The P-Sic1 pull down result in the assay with phospho-Sic1 is given as “bind”; with phospho-Sic1 (listed as V384N/W717N) it was “fully competent”. In addition, the “Sic1 phospho-isoforms captured (number of phosphorylated sites)” value with phospho-Sic1 isoforms is recorded as “as few as four”.

B3: W426A: mutant cdc4 polypeptide (protein)
chain: MGSFPLAEFPLRDIPVPYSYRVSGGIASSGSVTALVTAAGTHRNSSTAKTVETEDGEEDIDEYQRKRAAGSGESTPERSDFKRVKHDNHKTLHPVNLQNTGAASVDNDGLHNLTDISNDAEKLLMSVDDGSAAPSTLSVNMGVASHNVAAPTTVNAATITGSDVSNNVNSATINNPMEEGALPLSPTASSPGTTTPLAKTTKTINNNNNIADLIESKDSIISPEYLSDEIFSAINNNLPHAYFKNLLFRLVANMDRSELSDLGTLIKDNLKRDLITSLPFEISLKIFNYLQFEDIINSLGVSQNWNKIIRKSTSLWKKLLISENFVSPKGFNSLNLKLSQKYPKLSQQDRLRLSFLENIFILKNWYNPKFVPQRTTLRGHMTSVITCLQFEDNYVITGADDKMIRVYDSINKKFLLQLSGHDGGVAALKYAHGGILVSGSTDRTVRVWDIKKGCCTHVFKGHNSTVRCLDIVEYKNIKYIVTGSRDNTLHVWKLPKESSVPDHGEEHDYPLVFHTPEENPYFVGVLRGHMASVRTVSGHGNIVVSGSYDNTLIVWDVAQMKCLYILSGHTDRIYSTIYDHERKRCISASMDTTIRIWDLENIWNNGECSYATNSASPCAKILGAMYTLQGHTALVGLLRLSDKFLVSAAADGSIRGWDANDYSRKFSYHHTNLSAITTFYVSDNILVSGSENQFNIYNLRSGKLVHANILKDADQIWSVNFKGKTLVAAVEKDGQSFLEILDFSKASKINYVSNPVNSSSSSLESISTSLGLTRTTIIP
With B3, the shuffle entry in the assay on cdc4Δ strain is “dead”; in the assay on cdc4Δ strain (listed as Trp 426), “abolished”; in the assay with cdc4Δ strain (listed as Trp426Ala) it was “unable”. Also, the figures for the P-Sic1 pull down result with phospho-Sic1, with phospho-Sic1 (listed as Trp 426) and in the assay on phospho-Sic1 (listed as Trp426Ala) were “no bind”, “abolished” and “unable to bind”, respectively. Also, in the assay with Skp1, the Skp1 binding entry is on record as “fully competent”.
